T1: human TREM2 (human, UniProt Q9NZC2 19-174, limits assumed)
T1 construct: also called triggering receptor expressed on myeloid cells 2
T1 sequence: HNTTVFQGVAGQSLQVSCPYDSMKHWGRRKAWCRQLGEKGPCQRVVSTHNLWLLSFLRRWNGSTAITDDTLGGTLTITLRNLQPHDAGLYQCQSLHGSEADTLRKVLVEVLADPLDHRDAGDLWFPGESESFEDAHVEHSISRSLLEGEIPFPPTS


Tests used:
[1] = target: T1, human TREM2; assay: 2nd screen 100 nM
[2] = target: T1, human TREM2; assay: 1st screen (110 nM or 10 nM)

Row | Binder | Binding Signal (fold over 6E7 Parental antibody) [1] [fold] | Binding Signal (fold over 6E7 Parental antibody) [2] [fold]
1 | V6 (antibody, V domains shown) VH: EVQLVQSGAEVKKPGESLKISCKGSGYSFTSMWIAWVRQMPGKGLEWMGIIYPGDSDTRYSPSFQGQVTISADKSISTAYLQWSSLKASDTAMYFCARQRTFYYDSSDYFDYWGQGTLVTVSS VL: DIQMTQSPSSVSASVGDRVTITCRASQGISSWLAWYQQKPGKAPKLLIYAASSLQNGVPSRFSGSGSGTDFTLTISSLQPEDFATYFCQQADSFPRTFGQGTKLEIK | 0.56 | 0.2
2 | V7 (antibody, V domains shown) VH: EVQLVQSGAEVKKPGESLKISCKGSGYSFTSEWIAWVRQMPGKGLEWMGIIYPGDSDTRYSPSFQGQVTISADKSISTAYLQWSSLKASDTAMYFCARQRTFYYDSSDYFDYWGQGTLVTVSS VL: DIQMTQSPSSVSASVGDRVTITCRASQGISSWLAWYQQKPGKAPKLLIYAASSLQNGVPSRFSGSGSGTDFTLTISSLQPEDFATYFCQQADSFPRTFGQGTKLEIK | 0.32 | 0.11
3 | V8 (antibody, V domains shown) VH: EVQLVQSGAEVKKPGESLKISCKGSGYSFTSYWIAWVRQMPGKGLEWMGIIYPGDSDTKYSPSFQGQVTISADKSISTAYLQWSSLKASDTAMYFCARQRTFYYDSSDYFDYWGQGTLVTVSS VL: DIQMTQSPSSVSASVGDRVTITCRASQGISSWLAWYQQKPGKAPKLLIYAASSLQNGVPSRFSGSGSGTDFTLTISSLQPEDFATYFCQQADSFPRTFGQGTKLEIK | 0.77 | 0.28
4 | V9 (antibody, V domains shown) VH: EVQLVQSGAEVKKPGESLKISCKGSGYSFTSYWIAWVRQMPGKGLEWMGIIYPGDSDTRYSPSFQGQVTISADKSISTAYLQWSSLKASDTAMYFCARQRGFYYDSSDYFDYWGQGTLVTVSS VL: DIQMTQSPSSVSASVGDRVTITCRASQGISSWLAWYQQKPGKAPKLLIYAASSLQNGVPSRFSGSGSGTDFTLTISSLQPEDFATYFCQQADSFPRTFGQGTKLEIK | 0.54 | 0.67
5 | V10 (antibody, V domains shown) VH: EVQLVQSGAEVKKPGESLKISCKGSGYSFTSYWIAWVRQMPGKGLEWMGIIYPGDSDTRYSPSFQGQVTISADKSISTAYLQWSSLKASDTAMYFCARQRTFYYDSSDYFDYWGQGTLVTVSS VL: DIQMTQSPSSVSASVGDRVTITCRASQGISSWLAWYQQKPGKAPKLLIYSASSLQNGVPSRFSGSGSGTDFTLTISSLQPEDFATYFCQQADSFPRTFGQGTKLEIK | 0.7 | 0.76
6 | V11 (antibody, V domains shown) VH: EVQLVQSGAEVKKPGESLKISCKGSGYSFTSYWIAWVRQMPGKGLEWMGIIYPGDSDTRYSPSFQGQVTISADKSISTAYLQWSSLKASDTAMYFCARQRTFYYDSSDYFDYWGQGTLVTVSS VL: DIQMTQSPSSVSASVGDRVTITCRASQGISSWLAWYQQKPGKAPKLLIYAASSLQNGVPSRFSGSGSGTDFTLTISSLQPEDFATYFCQQAASFPRTFGQGTKLEIK | 0.42 | 0.79
7 | V18 (antibody, V domains shown) VH: EVQLVQSGAEVKKPGESLKISCKGSGYSFTSYHIAWVRQMPGKGLEWMGIIYPGDSDTRYSPSFQGQVTISADKSISTAYLQWSSLKASDTAMYFCARQRTFYYDSSDYFDYWGQGTLVTVSS VL: DIQMTQSPSSVSASVGDRVTITCRASQGISSWLAWYQQKPGKAPKLLIYAASSLQNGVPSRFSGSGSGTDFTLTISSLQPEDFATYFCQQADSFPRTFGQGTKLEIK | 0.42 | 0.17
8 | V19 (antibody, V domains shown) VH: EVQLVQSGAEVKKPGESLKISCKGSGYSFTSSWIAWVRQMPGKGLEWMGIIYPGDSDTRYSPSFQGQVTISADKSISTAYLQWSSLKASDTAMYFCARQRTFYYDSSDYFDYWGQGTLVTVSS VL: DIQMTQSPSSVSASVGDRVTITCRASQGISSWLAWYQQKPGKAPKLLIYAASSLQNGVPSRFSGSGSGTDFTLTISSLQPEDFATYFCQQADSFPRTFGQGTKLEIK | 0.48 | 0.59
9 | V20 (antibody, V domains shown) VH: EVQLVQSGAEVKKPGESLKISCKGSGYSFTSYWIAWVRQMPGKGLEWMGRIYPGDSDTRYSPSFQGQVTISADKSISTAYLQWSSLKASDTAMYFCARQRTFYYDSSDYFDYWGQGTLVTVSS VL: DIQMTQSPSSVSASVGDRVTITCRASQGISSWLAWYQQKPGKAPKLLIYAASSLQNGVPSRFSGSGSGTDFTLTISSLQPEDFATYFCQQADSFPRTFGQGTKLEIK | 0.52 | 0.18

The next lines start with the values.

Row | Binding Signal (fold over 6E7 Parental antibody) [1] [fold] | Binding Signal (fold over 6E7 Parental antibody) [2] [fold] | Binder
10 | 0.68 | 0.76 | V21 (antibody, V domains shown) VH: EVQLVQSGAEVKKPGESLKISCKGSGYSFTSYWIAWVRQMPGKGLEWMGIIYPGDSDTRYSPSFQGQVTISADKSISTAYLQWSSLKASDTAMYFCARQRTFYYDSSDFFDYWGQGTLVTVSS VL: DIQMTQSPSSVSASVGDRVTITCRASQGISSWLAWYQQKPGKAPKLLIYAASSLQNGVPSRFSGSGSGTDFTLTISSLQPEDFATYFCQQADSFPRTFGQGTKLEIK
11 | 0.71 | 0.3 | V22 (antibody, V domains shown) VH: EVQLVQSGAEVKKPGESLKISCKGSGYSFTSYWIAWVRQMPGKGLEWMGIIYPGDSDTRYSPSFQGQVTISADKSISTAYLQWSSLKASDTAMYFCARQRTFYYDSSDYFDYWGQGTLVTVSS VL: DIQMTQSPSSVSASVGDRVTITCRASQGISSWLAWYQQKPGKAPKLLIYRASSLQNGVPSRFSGSGSGTDFTLTISSLQPEDFATYFCQQADSFPRTFGQGTKLEIK
12 | 0.4 | 0.4 | V23 (antibody, V domains shown) VH: EVQLVQSGAEVKKPGESLKISCKGSGYSFTSYWIAWVRQMPGKGLEWMGIIYPGDSDTRYSPSFQGQVTISADKSISTAYLQWSSLKASDTAMYFCARQRTFYYDSSDYFDYWGQGTLVTVSS VL: DIQMTQSPSSVSASVGDRVTITCRASQGISSWLAWYQQKPGKAPKLLIYAASSLQNGVPSRFSGSGSGTDFTLTISSLQPEDFATYFCQQADSFPLTFGQGTKLEIK
13 | 0.72 | 0.79 | V30 (antibody, V domains shown) VH: EVQLVQSGAEVKKPGESLKISCKGSGSSFTSYWIAWVRQMPGKGLEWMGIIYPGDSDTRYSPSFQGQVTISADKSISTAYLQWSSLKASDTAMYFCARQRTFYYDSSDYFDYWGQGTLVTVSS VL: DIQMTQSPSSVSASVGDRVTITCRASQGISSWLAWYQQKPGKAPKLLIYAASSLQNGVPSRFSGSGSGTDFTLTISSLQPEDFATYFCQQADSFPRTFGQGTKLEIK
14 | 0.89 | 0.82 | V32 (antibody, V domains shown) VH: EVQLVQSGAEVKKPGESLKISCKGSGYSFTSYWIAWVRQMPGKGLEWMGIIYPGDSDTRYSNSFQGQVTISADKSISTAYLQWSSLKASDTAMYFCARQRTFYYDSSDYFDYWGQGTLVTVSS VL: DIQMTQSPSSVSASVGDRVTITCRASQGISSWLAWYQQKPGKAPKLLIYAASSLQNGVPSRFSGSGSGTDFTLTISSLQPEDFATYFCQQADSFPRTFGQGTKLEIK
15 | 0.34 | 0.23 | V33 (antibody, V domains shown) VH: EVQLVQSGAEVKKPGESLKISCKGSGYSFTSYWIAWVRQMPGKGLEWMGIIYPGDSDTRYSPSFQGQVTISADKSISTAYLQWSSLKASDTAMYFCARQRTFYGDSSDYFDYWGQGTLVTVSS VL: DIQMTQSPSSVSASVGDRVTITCRASQGISSWLAWYQQKPGKAPKLLIYAASSLQNGVPSRFSGSGSGTDFTLTISSLQPEDFATYFCQQADSFPRTFGQGTKLEIK
16 | 1.02 | 0.34 | V34 (antibody, V domains shown) VH: EVQLVQSGAEVKKPGESLKISCKGSGYSFTSYWIAWVRQMPGKGLEWMGIIYPGDSDTRYSPSFQGQVTISADKSISTAYLQWSSLKASDTAMYFCARQRTFYYDSSDYFDYWGQGTLVTVSS VL: DIQMTQSPSSVSASVGDRVTITCRASQGISSWLAWYQQKPGKAPKLLIYAASSLQDGVPSRFSGSGSGTDFTLTISSLQPEDFATYFCQQADSFPRTFGQGTKLEIK
17 | 0.29 | 0.21 | V35 (antibody, V domains shown) VH: EVQLVQSGAEVKKPGESLKISCKGSGYSFTSYWIAWVRQMPGKGLEWMGIIYPGDSDTRYSPSFQGQVTISADKSISTAYLQWSSLKASDTAMYFCARQRTFYYDSSDYFDYWGQGTLVTVSS VL: DIQMTQSPSSVSASVGDRVTITCRASQGISSWLAWYQQKPGKAPKLLIYAASSLQNGVPSRFSGSGSGTDFTLTISSLQPEDFATYFCQQAYSFPRTFGQGTKLEIK
18 | 0.41 | 0.45 | V42 (antibody, V domains shown) VH: EVQLVQSGAEVKKPGESLKISCKGSGYSFTSAWIAWVRQMPGKGLEWMGIIYPGDSDTRYSPSFQGQVTISADKSISTAYLQWSSLKASDTAMYFCARQRTFYYDSSDYFDYWGQGTLVTVSS VL: DIQMTQSPSSVSASVGDRVTITCRASQGISSWLAWYQQKPGKAPKLLIYAASSLQNGVPSRFSGSGSGTDFTLTISSLQPEDFATYFCQQADSFPRTFGQGTKLEIK
19 | 0.33 | 0.2 | V43 (antibody, V domains shown) VH: EVQLVQSGAEVKKPGESLKISCKGSGYSFTSYWIAWVRQMPGKGLEWMGIIYPGDSGTRYSPSFQGQVTISADKSISTAYLQWSSLKASDTAMYFCARQRTFYYDSSDYFDYWGQGTLVTVSS VL: DIQMTQSPSSVSASVGDRVTITCRASQGISSWLAWYQQKPGKAPKLLIYAASSLQNGVPSRFSGSGSGTDFTLTISSLQPEDFATYFCQQADSFPRTFGQGTKLEIK

Source: US20250282866A1 (VIGIL NEUROSCIENCE, published 2025)
